Data reported in US20120219942, “Methods Employing McrA to Detect 5-Methyl Cytosine” (Brookhaven Science Associates, LLC, published 2012).

Legend:
[1] = molecular target: T1, McrA (rMcrA-S, C-terminal StrepII) (Escherichia coli, UniProt P24200 P24200:1-277); test: EMSA; Ym5CGR somewhat higher affinity; settings: tags: C-terminal StrepII SAWSHPQFEK
T1 sequence: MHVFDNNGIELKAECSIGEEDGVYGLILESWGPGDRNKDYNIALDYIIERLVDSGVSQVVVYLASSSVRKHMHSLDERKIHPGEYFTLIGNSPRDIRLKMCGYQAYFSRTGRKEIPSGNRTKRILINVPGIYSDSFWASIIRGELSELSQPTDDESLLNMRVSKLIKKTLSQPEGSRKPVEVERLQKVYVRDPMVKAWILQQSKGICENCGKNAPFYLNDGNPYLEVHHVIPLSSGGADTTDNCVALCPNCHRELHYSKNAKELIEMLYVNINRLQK
Experimental: (§1) EMSA binding assays. Reactions (10 μl) typically contained a mixture of 10-25 pMol of various test DNAs, and 250 ng sonicated E. coli. ER2925DNA as a non-methylated, non-specific competitor in 50 mM Tris-HCl, 100 mM NaCl, 1 mM dithiothreitol, 10 mM MgCl₂ (NEBuffer #3), supplemented, with 100 μg/ml BSA. We started the reactions adding 25-175 pMol McrA-S; after 45 min at RT, the entire sample was loaded on 10% acrylamide Tris-Acetate/EDTA gel (1×TAE: 40 mM Tris-Acetate, 1 mM disodium EDTA) which was electrophoresed at RT. Thereafter, the gels were stained with ethidium bromide (0.5 μg/ml) at RT and visualized with UV light. Then, we stained the gels with Coomassie Blue to detect rMcrA-S.

[2] = molecular target: T1, McrA (rMcrA-S, C-terminal StrepII); test: EMSA; NEBuffer 3, 100 mM NaCl, 10 mM MgCl2, RT; settings: tags: C-terminal StrepII SAWSHPQFEK
Experimental: as §1

[3] = molecular target: T1, McrA (rMcrA-S, C-terminal StrepII); test: EMSA; high affinity; NEBuffer 3, RT; Mg independent; settings: tags: C-terminal StrepII SAWSHPQFEK
Experimental: as §1

[4] = molecular target: T1, McrA (rMcrA-S, C-terminal StrepII); test: EMSA; NEBuffer 3, RT; settings: tags: C-terminal StrepII SAWSHPQFEK
Experimental: as §1

[5] = molecular target: T1, McrA (rMcrA-S, C-terminal StrepII); test: EMSA; C opposite m5C; settings: tags: C-terminal StrepII SAWSHPQFEK; mismatch C opposite m5C
Experimental: as §1
(§2) We next tested the ability of rMcrA-S to gel-shift ds-cassettes wherein an A, C, T, U, or I residue is placed opposite the m⁵C.

[6] = molecular target: T1, McrA (rMcrA-S, C-terminal StrepII); test: EMSA; A opposite m5C; settings: tags: C-terminal StrepII SAWSHPQFEK; mismatch A opposite m5C
Experimental: as §1, §2

[7] = molecular target: T1, McrA (rMcrA-S, C-terminal StrepII); test: EMSA; T opposite m5C; settings: tags: C-terminal StrepII SAWSHPQFEK; mismatch T opposite m5C
Experimental: as §1, §2

[8] = molecular target: T1, McrA (rMcrA-S, C-terminal StrepII); test: EMSA; U opposite m5C; settings: tags: C-terminal StrepII SAWSHPQFEK; mismatch U opposite m5C
Experimental: as §1, §2

[9] = molecular target: T1, McrA (rMcrA-S, C-terminal StrepII); test: EMSA; hemimethylated; settings: tags: C-terminal StrepII SAWSHPQFEK
Experimental: as §1, §2

B1: Tm5CGG cassette (dsDNA)
DNA 1: CCCTCTGTCGGAGGAGGCTCCTGC
DNA 2: GCAGGAGCCTCCTCCGACAGAGGG
modifications: 5mC at CpG (M.SssI), top 9, bottom 15
binding result [1]: binds

B2: three m5CpG cassette (dsDNA)
DNA 1: GCCTTCAGCGCCGGCGGATCCAGT
DNA 2: ACTGGATCCGCCGGCGCTGAAGGC
modifications: 5mC at positions 9, 12, 15 of both strands
binding result [2]: binds

B3: Cm5CGG cassette (single methylated HpaII site) (dsDNA)
DNA 1: GCCTTCAGCGCCGGCGGATCCAGT
DNA 2: ACTGGATCCGCCGGCGCTGAAGGC
modifications: 5mC at position 12 of both strands
binding result [3]: binds

B4: Gm5CGG cassette (dsDNA)
DNA 1: CCCTCTGGCGGAGGAGGCTCCTGC
DNA 2: GCAGGAGCCTCCTCCGCCAGAGGG
modifications: 5mC at CpG (M.SssI), top 9, bottom 15
binding result [4]: binds

B5: Gm5CGA cassette (dsDNA)
DNA 1: CCCTCTGGCGAAGGAGGCTCCTGC
DNA 2: GCAGGAGCCTCCTTCGCCAGAGGG
modifications: 5mC at CpG (M.SssI), top 9, bottom 15
binding result [4]: binds

B6: m5CGC cassette (dsDNA)
DNA 1: CCCTCTGACGCAGGAGGCTCCTGC
DNA 2: GCAGGAGCCTCCTGCGTCAGAGGG
modifications: 5mC at CpG (M.SssI), top 9, bottom 15
binding result [4]: no binding

B7: m5CGT cassette (dsDNA)
DNA 1: CCCTCTGACGTAGGAGGCTCCTGC
DNA 2: GCAGGAGCCTCCTACGTCAGAGGG
modifications: 5mC at CpG (M.SssI), top 9, bottom 15
binding result [4]: no binding

B8: Tm5CGA cassette (dsDNA)
DNA 1: CCCTCTGTCGAAGGAGGCTCCTGC
DNA 2: GCAGGAGCCTCCTTCGACAGAGGG
modifications: 5mC at CpG (M.SssI), top 9, bottom 15
binding result [1]: binds

B9: m5C/C mismatch cassette (dsDNA)
DNA 1: GCCTTCAGCGCCGGCGGATCCAGT
DNA 2: ACTGGATCCGCCCGCGCTGAAGGC
modifications: 5mC at position 12 of top strand only
binding result [5]: no binding

B10: Am5CGG cassette (dsDNA)
DNA 1: CCCTCTGACGGAGGAGGCTCCTGC
DNA 2: GCAGGAGCCTCCTCCGTCAGAGGG
modifications: 5mC at CpG (M.SssI), top 9, bottom 15
binding result [4]: binds

B11: m5C/A mismatch cassette (dsDNA)
DNA 1: GCCTTCAGCGCCGGCGGATCCAGT
DNA 2: ACTGGATCCGCCAGCGCTGAAGGC
modifications: 5mC at position 12 of top strand only
binding result [6]: no binding

B12: Cm5CGG cassette (M.SssI) (dsDNA)
DNA 1: CCCTCTGCCGGAGGAGGATCCTGC
DNA 2: GCAGGATCCTCCTCCGGCAGAGGG
modifications: 5mC at CpG (M.SssI), top 9, bottom 15
binding result [1]: binds

B13: m5C/T mismatch cassette (dsDNA)
DNA 1: GCCTTCAGCGCCGGCGGATCCAGT
DNA 2: ACTGGATCCGCCTGCGCTGAAGGC
modifications: 5mC at position 12 of top strand only
binding result [7]: no binding

B14: m5C/U mismatch cassette (dsDNA)
DNA 1: GCCTTCAGCGCCGGCGGATCCAGT
DNA 2: ACTGGATCCGCCUGCGCTGAAGGC
modifications: 5mC at position 12 of top strand only; U in bottom strand opposite m5C
binding result [8]: no binding

B15: Am5CGA cassette (dsDNA)
DNA 1: CCCTCTGACGAAGGAGGCTCCTGC
DNA 2: GCAGGAGCCTCCTTCGTCAGAGGG
modifications: 5mC at CpG (M.SssI), top 9, bottom 15
binding result [4]: binds

B16: hemimethylated Cm5CGG cassette (m5C/G) (dsDNA)
DNA 1: GCCTTCAGCGCCGGCGGATCCAGT
DNA 2: ACTGGATCCGCCGGCGCTGAAGGC
modifications: 5mC at position 12 of top strand only
binding result [9]: binds

B17: Cm5CGA cassette (dsDNA)
DNA 1: CCCTCTGCCGAAGGAGGCTCCTGC
DNA 2: GCAGGAGCCTCCTTCGGCAGAGGG
modifications: 5mC at CpG (M.SssI), top 9, bottom 15
binding result [1]: binds
